Literature values, collected in paper PMC2846628.
pKd: −log10 of the molar value.

Biological target: Cdc25 phosphopeptide (Homo sapiens)
Experiment: NMR titration

pKd: 5.10
Substance: Pin1 1-163 (from UniProt Q13526)
